Assay [1] deals with F-actin (rabbit skeletal muscle actin) (rabbit, UniProt P68135 1-377). Nature of the assay: cell-based or functional assay.
Assay [2] concerns the target Pyrene-labelled F-actin (rabbit skeletal muscle actin) (rabbit, UniProt P68135 1-377, pyrene label). Nature of the assay: other fluorescence titration; stopped-flow, pyrene-actin fluorescence; k+A from the slope of observed rate constants against actin concentration; k-A by chasing pyrene-actin from the complex with a large excess of unlabelled F-actin; KA calculated as k-A/k+A; 25 mM MOPS, 100 mM KCl, 5 mM MgCl2, 1 mM DTT, pH 7.0, 20 °C. Particulars: both partners purified.

Residue numbers refer to the chain shown, from its start. Names may count otherwise.

B1: Dd myosin-2 M765-2R wild type (Dd myosin-2 motor domain fused to two Dd α-actinin repeats) (other)
chain: MNPIHDRTSDYHKYLKVKQGDSDLFKLTVSDKRYIWYNPDPKERDSYECGEIVSETSDSFTFKTVDGQDRQVKKDDANQRNPIKFDGVEDMSELSYLNEPAVFHNLRVRYNQDLIYTYSGLFLVAVNPFKRIPIYTQEMVDIFKGRRRNEVAPHIFAISDVAYRSMLDDRQNQSLLITGESGAGKTENTKKVIQYLASVAGRNQANGSGVLEQQILQANPILEAFGNAKTTRNNNSSRFGKFIEIQFNSAGFISGASIQSYLLEKSRVVFQSETERNYHIFYQLLAGATAEEKKALHLAGPESFNYLNQSGCVDIKGVSDSEEFKITRQAMDIVGFSQEEQMSIFKIIAGILHLGNIKFEKGAGEGAVLKDKTALNAASTVFGVNPSVLEKALMEPRILAGRDLVAQHLNVEKSSSSRDALVKALYGRLFLWLVKKINNVLCQERKAYFIGVLDISGFEIFKVNSFEQLCINYTNEKLQQFFNHHMFKLEQEEYLKEKINWTFIDFGLDSQATIDLIDGRQPPGILALLDEQSVFPNATDNTLITKLHSHFSKKNAKYEEPRFSKTEFGVTHYAGQVMYEIQDWLEKNKDPLQQDLELCFKDSSDNVVTKLFNDPNIASRAKKGANFITVAAQYKEQLASLMATLETTNPHFVRCIIPNNKQLPAKLEDKVVLDQLRCNGVLEGIRITRKGFPNRIIYADFVKRYYLLAPNVPRDAEDSQKATDAVLKHLNIDPEQYRFGITKIFFRAGQLARIEEAREQRISEILEQTKSDYLKRANELVQWINDKQASLESRDFGDSIESVQSFMNAHKEYKKTEKPPKGQEVSELEAIYNSLQTKLRLIKREPFVAPAGLTPNEIDSTWSALEKAEQEHAEALRIELKRQKKIAVLLQKYNRILKKLENWATTKSVYLGSNETGDSITAVQAKLKNLEAFDGECQSLEGQSNSDLLSILAQLTELNYNGVPELTERKDTFFAQQWTGVKSSAETYKNTLLAELERLQKIEDSLV
notes: Dictyostelium discoideum myosin-2 heavy chain (mhcA gene), first 765 residues (motor domain); Dictyostelium discoideum α-actinin, codon 264 to 505 (two α-actinin repeats, artificial lever arm); Expression vector based on pDXA-3H; also called WT; M765-2R WT; source: Dictyostelium discoideum AX3-Orf+ cells, purified (Ni-NTA)
Consider B1, for which the “k cat/K app, calculated from k cat and K app of the actin-activated steady-state ATPase” value (shortened to “k cat/K app, calculated”) in assay [1] was 30000 M⁻¹ s⁻¹. Besides, in assay [2], the Kd is 3.6 nM, the dissociation rate constant (koff) was 0.0049 s⁻¹ and the kon is 1.37e+06 M⁻¹ s⁻¹.

B2: Dd myosin-2 M765-2R K265E (other)
chain: B1 chain with K265E
notes: Dictyostelium discoideum myosin-2 heavy chain (mhcA gene), first 765 residues (motor domain), with K265E; Dictyostelium discoideum α-actinin, codon 264 to 505 (two α-actinin repeats, artificial lever arm); Point mutant of the fusion construct m1; source: Dictyostelium discoideum AX3-Orf+ cells, purified (Ni-NTA)
As for B2, the “k cat/K app, calculated” value in assay [1] was 15000 M⁻¹ s⁻¹. In addition, in assay [2], the Kd is 10.1 nM, the off-rate constant (koff) is 0.0113 s⁻¹ and the association rate constant (kon) was 1.11e+06 M⁻¹ s⁻¹.

B3: Dd myosin-2 M765-2R K265Q (other)
chain: B1 chain with K265Q
notes: Dictyostelium discoideum myosin-2 heavy chain (mhcA gene), first 765 residues (motor domain), with K265Q; Dictyostelium discoideum α-actinin, codon 264 to 505 (two α-actinin repeats, artificial lever arm); Point mutant of the fusion construct m1; source: Dictyostelium discoideum AX3-Orf+ cells, purified (Ni-NTA)
In the case of B3, the “k cat/K app, calculated” value in assay [1] was 19000 M⁻¹ s⁻¹. Moreover, in assay [2], the Kd was 7.6 nM, the koff was 0.0078 s⁻¹ and the on-rate (kon) is 1.02e+06 M⁻¹ s⁻¹.

B4: Dd myosin-2 M765-2R K265A (other)
chain: B1 chain with K265A
notes: Dictyostelium discoideum myosin-2 heavy chain (mhcA gene), first 765 residues (motor domain), with K265A; Dictyostelium discoideum α-actinin, codon 264 to 505 (two α-actinin repeats, artificial lever arm); Point mutant of the fusion construct m1; source: Dictyostelium discoideum AX3-Orf+ cells, purified (Ni-NTA)
Turning to B4, in assay [1], the “k cat/K app, calculated” value was 20000 M⁻¹ s⁻¹. Besides, in assay [2], the Kd is 7.5 nM, the koff is 0.0104 s⁻¹ and the on-rate (kon) was 1.38e+06 M⁻¹ s⁻¹.

The values above are taken from article PMC5550493, “The Conserved Lysine-265 Allosterically Modulates Nucleotide- and Actin-binding Site Coupling in Myosin-2” (Scientific Reports, 2017).
